Reference: patent publication US20020019014A1, “Methods of identifying prosaposin receptor agonists and antagonists” (priority 1997, published 2002)
“Also recorded” adds a separate entry of the source. Read-outs that look alike come from different tables or passages of the source.

B1: saposin A: saposin from prosaposin; inactive compound that binds the receptor without stimulating effector functions (protein, UniProt P07602 60-142, looked up)
Saposin-A: SLPCDICKDVVTAAGDMLKDNATEEEILVYLEKTCDWLPKPNMSASCKEIVDSYLPVILDIIKGEMSRPGEVCSALNLCESLQ
modifications: Saposin-A
B2: prosaposin: 70 kilodalton glycoprotein, precursor of saposins A, B, C and D (protein, UniProt P07602 17-524, looked up)
pro-form: GPVLGLKECTRGSAVWCQNVKTASDCGAVKHCLQTVWNKPTVKSLPCDICKDVVTAAGDMLKDNATEEEILVYLEKTCDWLPKPNMSASCKEIVDSYLPVILDIIKGEMSRPGEVCSALNLCESLQKHLAELNHQKQLESNKIPELDMTEVVAPFMANIPLLLYPQDGPRSKPQPKDNGDVCQDCIQMVTDIQTAVRTNSTFVQALVEHVKEECDRLGPGMADICKNYISQYSEIAIQMMMHMQPKEICALVGFCDEVKEMPMQTLVPAKVASKNVIPALELVEPIKKHEVPAKSDVYCEVCEFLVKEVTKLIDNNKTEKEILDAFDKMCSKLPKSLSEECQEVVDTYGSSILSILLEEVSPELVCSMLHLCSGTRLPALTVHVTQPKDGGFCEVCKKLVGYLDRNLEKNSTKQEILAALEKGCSFLPDPYQKQCDQFVAEYEPVLIEILVEVMDPSFVCLKIGACPSAHKPLLGTEKCIWGPSYWCQNTETAAQCNAVEHCKRHVWN
modifications: pro-form
notes: 70 kilodalton glycoprotein, precursor of saposins A, B, C and D
B3: saposin C: heat-stable glycoprotein generated by proteolytic processing of prosaposin (protein, UniProt P07602 311-390, looked up)
Saposin-C: SDVYCEVCEFLVKEVTKLIDNNKTEKEILDAFDKMCSKLPKSLSEECQEVVDTYGSSILSILLEEVSPELVCSMLHLCSG
modifications: Saposin-C

Key:
[1] = tested on: prosaposin receptor; conditions: cited from earlier work
[2] = tested on: prosaposin receptor; conditions: cited from earlier work; remark: listed apart in the source
[3] = tested on: Newborn mouse cerebellar explants; conditions: as described in U.S. Pat. No. 5,571,787 and PCT/US94/08453; cited from earlier work
[4] = tested on: several proteins; conditions: cited from earlier work
[5] = tested on: NS20Y neuroblastoma cells; conditions: as described in U.S. Pat. No. 5,571,787 and PCT/US94/08453; cited from earlier work
[6] = tested on: NS20Y cells; conditions: as described in U.S. Pat. No. 5,571,787 and PCT/US94/08453, cited from earlier work
[7] = tested on: MAPK; assay: MAP kinase (MAPK) phosphorylation assay; type: cell-based; conditions: after binding to the prosaposin receptor
Description: PC12 cells are grown to 85% confluence in DME high glucose media containing 10% FBS, 5% horse serum, 100 U/ml penicillin, 100 μg/ml streptomycin and 250 pg/ml fimgizone. Approximately 2×10^6 cells per 100 mm plate are placed in serum-free media for 24 hours prior to addition of compounds capable of binding to the prosaposin receptor. Positive controls are as described previously. Cells are stimulated with the compound of interest, then lysed on ice in 1 ml of 50 mM Tris-HCl, pH 8.0, 150 mM NaCl, 1 mM EGTA, pH 8.0, 100 mM NaF, pH 8.0, 10% glycerol, 1.5 mM MgCl2. 1% (v/v) Triton X-100, 1 mM sodium orthovanadate, 1 mM phenylmethylsulfonyl fluoride (PMSF), 10 μg/ml leupeptin, 20 μg/ml aprotinin. Unsolubilized materials are removed by ultracentrifugation at 12,000 x g at4° C.
Equal amounts of cell lysates are resolved by sodium dodecyl sulfate-polyacrylamide gel electrophoresis (SDS-PAGE) and transferred to a PVDF membrane (Millipore, Bedford, Mass.). Phosphorylated MAPK is identified using PhosphoPlus™ MAPK antibody and an alkaline phosphatase conjugated secondary antibody that emits light in the presence of a chemiluminescent substrate (New England Biolabs, Beverly, Mass.). […] Densitometric data are expressed as a ratio of MAPK-P absorbance units divided by MAPK-C absorbance units. […]

phosphorylation of MAPK [7]	Molecule	binding to receptor [1]	stimulation of receptor effector functions [2]	stimulation of myelination [3]	incorporation of 32P into several proteins [4]	neurite outgrowth [5]	prevention of neural cell death [6]	prevention of neural cell death ([6]; listed as Prosaposin)
	B1	binds to the receptor	without stimulating any of its effector functions					
stimulate phosphorylation of MAPK	B2	binds to a cell surface receptor		stimulate myelination	stimulates incorporation of ^32P into several proteins	induce neurite outgrowth	prevent neural cell death	prevent neuronal cell death
stimulate phosphorylation of MAPK	B3			stimulate myelination		induce neurite outgrowth	prevent neuronal cell death; also recorded: prevent neural cell death	
